Experimental data: IntAct's records for PubMed 18511562

B1: Charged multivesicular body protein 4a (Homo sapiens), Q9BY43 (parent)
chain: MSGLGRLFGKGKKEKGPTPEEAIQKLKETEKILIKKQEFLEQKIQQELQTAKKYGTKNKRAALQALRRKKRFEQQLAQTDGTLSTLEFQREAIENATTNAEVLRTMELAAQSMKKAYQDMDIDKVDELMTDITEQQEVAQQISDAISRPMGFGDDVDEDELLEELEELEQEELAQELLNVGDKEEEPSVKLPSVPSTHLPAGPAPKVDEDEEALKQLAEWVS

Variants of: B1
Details: with pdc6i_human PDCD6IP
MSGLGRLFGKGKKEKGPTPEEAIQKLKETEKILIKKQEFLEQKIQQELQTAKKYGTKNKRAALQALRRKKRFEQQLAQTDGTLSTLEFQREAIENATTNAEVLRTMELAAQSMKKAYQDMDIDKVDELMTDITEQQEVAQQISDAISRPMGFGDDVDEDELLEELEELEQEELAQELLNVGDKEEEPSVKLPSVPSTHLPAGPAPKVDEDEEAAKQLAEWVS [L214A] was tested, and the “effect of a mutation on the interaction” value was “disrupting interaction”.
MSGLGRLFGKGKKEKGPTPEEAIQKLKETEKILIKKQEFLEQKIQQELQTAKKYGTKNKRAALQALRRKKRFEQQLAQTDGTLSTLEFQREAIENATTNAEVLRTMELAAQSMKKAYQDMDIDKVDELMTDITEQQEVAQQISDAISRPMGFGDDVDEDELLEELEELEQEELAQELLNVGDKEEEPSVKLPSVPSTHLPAGPAPKVDEDEEALKQAAEWVS [L217A] was tested, and the “effect of a mutation on the interaction” value was “disrupting interaction”.
In the case of MSGLGRLFGKGKKEKGPTPEEAIQKLKETEKILIKKQEFLEQKIQQELQTAKKYGTKNKRAALQALRRKKRFEQQLAQTDGTLSTLEFQREAIENATTNAEVLRTMELAAQSMKKAYQDMDIDKVDELMTDITEQQEVAQQISDAISRPMGFGDDVDEDELLEELEELEQEELAQELLNVGDKEEEPSVKLPSVPSTHLPAGPAPKVDEDEEALKQLAEAVS [W220A], the “effect of a mutation on the interaction” value is reported as “disrupting interaction”.
